Kd data for one molecule are collected here from PMC11342335 (2024).

This assay addresses human sortilin (R&D Systems, 3154-ST) (human, UniProt Q99523 78-755). Description: SPR. (Surface plasmon resonance follows binding to a sensor surface in real time, without labels.)

Chain of human sortilin (R&D Systems, 3154-ST) (Q99523 78-755): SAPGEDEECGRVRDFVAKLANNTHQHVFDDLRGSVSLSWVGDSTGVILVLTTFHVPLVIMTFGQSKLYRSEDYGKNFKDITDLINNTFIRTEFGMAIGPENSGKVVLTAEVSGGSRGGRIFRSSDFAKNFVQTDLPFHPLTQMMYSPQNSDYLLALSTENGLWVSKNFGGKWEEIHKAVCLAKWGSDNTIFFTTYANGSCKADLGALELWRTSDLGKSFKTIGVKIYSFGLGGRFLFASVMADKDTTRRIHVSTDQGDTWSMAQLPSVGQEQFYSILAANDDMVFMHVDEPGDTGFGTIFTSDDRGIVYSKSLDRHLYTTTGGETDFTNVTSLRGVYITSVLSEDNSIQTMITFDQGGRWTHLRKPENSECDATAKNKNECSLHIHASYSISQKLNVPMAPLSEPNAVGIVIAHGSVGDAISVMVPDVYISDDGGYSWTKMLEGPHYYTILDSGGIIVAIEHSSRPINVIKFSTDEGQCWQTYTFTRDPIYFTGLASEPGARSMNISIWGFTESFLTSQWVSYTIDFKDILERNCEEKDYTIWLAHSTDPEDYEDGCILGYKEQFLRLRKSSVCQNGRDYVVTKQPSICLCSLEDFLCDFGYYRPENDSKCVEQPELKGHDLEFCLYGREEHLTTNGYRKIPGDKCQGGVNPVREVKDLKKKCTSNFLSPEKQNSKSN

LRREAPRWDAPLRDPGLRQLL [ABD-PGRNC21* (His6-ABD035-PGRNC21*)]: binding was put at a Kd of 0.026 µM.
